Reference: patent US20210040206A1
Values belong to the binder of their own block, whether it stands above or below them.

Key:
[1] = biological target: SIRPa v2 (antigen of the ELISA of FIG. 9B) (human) (UniProt P78324); assay: ELISA against SIRPa v2; given as ED50
[2] = biological target: human SIRPa expressed by blood monocytes of heterozygous V1/V2 donors (cells carry both SIRPa v1 and SIRPa v2); assay: FACS competition on human monocytes of V1/V2 donors; blocked ligand: biotinylated CD47Fc, revealed with streptavidin-PE
[3] = biological target: human SIRPa expressed by blood monocytes of heterozygous V1/V2 donors (cells carry both SIRPa v1 and SIRPa v2); assay: flow cytometry competition, recombinant CD47-Fc on heterozygous V1/V2 monocytes (n=5)
[4] = biological target: SIRPa V6 (SNP12 + 13) recombinant protein, extracellular domain fused with mouse Fc from IgG2a (human; mouse) (UniProt P78324); assay: ELISA on immobilised SIRPa variant-mouse Fc, donkey anti-human IgG peroxidase, TMB 450 nm; given as ED50
[5] = biological target: SIRPa V5 (SNP9 + 10 + 11) recombinant protein, extracellular domain fused with mouse Fc from IgG2a (human; mouse) (UniProt P78324); assay: as above
[6] = biological target: SIRPa V7 (SNP14 + ?) recombinant protein, extracellular domain fused with mouse Fc from IgG2a (human; mouse) (UniProt P78324); assay: as above
[7] = biological target: SIRPa V3 (SNP1 + 2 + 3 + 4 + 5 + 6) recombinant protein, extracellular domain fused with mouse Fc from IgG2a (human; mouse) (UniProt P78324); assay: as above
[8] = biological target: SIRPa V8 (SNP15 + 16) recombinant protein, extracellular domain fused with mouse Fc from IgG2a (human; mouse) (UniProt P78324); assay: as above
[9] = biological target: SIRPa V4 (SNP8) recombinant protein, extracellular domain fused with mouse Fc from IgG2a (human; mouse) (UniProt P78324); assay: as above
[10] = biological target: SIRPa V1 recombinant protein (extracellular domain fused with mouse Fc from IgG2a) (human; mouse) (UniProt P78324); assay: as above
SIRPv2 (human;mouse) = SIRPv2 (human;mouse) (UniProt P78324); assay: as above
SIRPv2 (human;mouse), sequence (P78324 31-373): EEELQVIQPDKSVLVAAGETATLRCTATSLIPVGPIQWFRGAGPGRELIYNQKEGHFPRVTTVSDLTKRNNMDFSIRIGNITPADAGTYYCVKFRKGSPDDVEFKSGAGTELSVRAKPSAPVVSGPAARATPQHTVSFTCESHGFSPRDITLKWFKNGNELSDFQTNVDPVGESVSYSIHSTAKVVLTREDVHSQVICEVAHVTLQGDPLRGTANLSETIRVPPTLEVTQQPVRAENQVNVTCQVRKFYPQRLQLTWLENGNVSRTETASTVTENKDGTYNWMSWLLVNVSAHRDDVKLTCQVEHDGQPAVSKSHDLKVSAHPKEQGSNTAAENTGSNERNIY

SIRPa V3 (SNP1 + 2 + 3 + 4 + 5 + 6) recombinant protein, extracellular domain fused with mouse Fc from IgG2a (human; mouse), sequence (P78324 other isoform, or with tags, fused parts or gaps limits assumed): as the sequence (P78324 31-373) above, with L14S, T20S, T22I, R24H, A27V counted along it
SIRPa v2 (antigen of the ELISA of FIG. 9B) (human), sequence (P78324 other isoform, or with tags, fused parts or gaps limits assumed): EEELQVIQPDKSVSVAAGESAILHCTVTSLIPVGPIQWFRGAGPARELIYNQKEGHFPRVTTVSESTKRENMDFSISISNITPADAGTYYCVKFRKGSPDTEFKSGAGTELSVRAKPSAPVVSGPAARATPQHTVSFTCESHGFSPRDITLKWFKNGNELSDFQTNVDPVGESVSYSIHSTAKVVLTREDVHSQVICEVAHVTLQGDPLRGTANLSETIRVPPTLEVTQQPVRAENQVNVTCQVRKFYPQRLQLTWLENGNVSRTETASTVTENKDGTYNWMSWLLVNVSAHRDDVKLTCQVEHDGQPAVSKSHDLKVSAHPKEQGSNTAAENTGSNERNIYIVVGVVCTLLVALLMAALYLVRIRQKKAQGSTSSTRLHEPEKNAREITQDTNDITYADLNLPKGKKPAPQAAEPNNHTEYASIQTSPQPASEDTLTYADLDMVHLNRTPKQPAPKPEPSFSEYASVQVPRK
SIRPa V4 (SNP8) recombinant protein, extracellular domain fused with mouse Fc from IgG2a (human; mouse), sequence (P78324 31-373 G75A limits assumed): as the sequence (P78324 31-373) above, with G45A counted along it
SIRPa V7 (SNP14 + ?) recombinant protein, extracellular domain fused with mouse Fc from IgG2a (human; mouse), sequence (P78324 31-373 R107S/G109S limits assumed): as the sequence (P78324 31-373) above, with R77S, G79S counted along it
SIRPa V5 (SNP9 + 10 + 11) recombinant protein, extracellular domain fused with mouse Fc from IgG2a (human; mouse), sequence (P78324 31-373 D95E/L96S limits assumed): as the sequence (P78324 31-373) above, with D65E, L66S counted along it
SIRPa V6 (SNP12 + 13) recombinant protein, extracellular domain fused with mouse Fc from IgG2a (human; mouse), sequence (P78324 31-373 N100E limits assumed): as the sequence (P78324 31-373) above, with N70E counted along it
SIRPa V1 recombinant protein (extracellular domain fused with mouse Fc from IgG2a) (human; mouse), sequence (P78324 31-373 limits assumed): as the sequence (P78324 31-373) above

EC50 [1]: 5720 ng/mL
B1: chimeric 18D5 antibody (antibody, from a related filing, V domains shown)
VH: QVQLQQPGAELVRPGSSVKLSCKASGYTFTSYWVHWVKQRPIQGLEWIGNIDPSDSDTHYNQKFKDKASLTVDKSSSTAYMQLSSLTFEDSAVYYCVRGGTGTMAWFAYWGQGTLVTVSA
VL: DVVMTQTPLSLPVSLGDQASISCRSSQSLVHSYGNTYLYWYLQKPGQSPKLLIYRVSNRFSGVPDRFSGSGSGTDFTLKISRVEAEDLGVYFCFQGTHVPYTFGSGTKLEIKR

IC50 (read off the curve) [2]: 100 ng/mL
reduction of CD47-Fc binding [3]: 50%
B2: in-house anti-human SIRPa v1 antibody (antibody, human IgG4, V domains shown)
VH: EVQLVQSGAEVKKPGESLRISCKASGYSFTSYWVHWVRQMPGKGLEWMGNIDPSDSDTHYSPSFQGHVTLSVDKSISTAYLQLSSLKASDTAMYYCVRGGTGTLAYFAYWGQGTLVTVSS
VL: DVVMTQSPLSLPVTLGQPASISCRSSQSLVHSYGNTYLYWFQQRPGQSPRLLIYRVSNRFSGVPDRFSGSGSGTDFTLKISRVEAEDVGVYYCFQGTHVPYTFGGGTKVEIK

EC50 [4]: 0.75 ng/mL
EC50 [5]: 0.78 ng/mL
EC50 [6]: 0.6 ng/mL
EC50 [7]: 0.77 ng/mL
EC50 [8]: 0.93 ng/mL
EC50 [9]: 0.74 ng/mL
EC50 [10]: 0.77 ng/mL
EC50 (SIRPv2 (human;mouse)): 0.77 ng/mL
B3: Kwar antibody (antibody, from a related filing, V domains shown)
VH: EVQLQQSGAELVKPGASVKLSCTASGFNIKDYYIHWVQQRTEQGLEWIGRIDPEDGETKYAPKFQDKATITADTSSNTAYLHLSSLTSEDTAVYYCARWGAYWGQGTLVTVSS
VL: QIVLTQSPAIMSASPGEKVTLTCSASSSVSSSYLYWYQQKPGSSPKLWIYSTSNLASGVPARFSGSGSGTSYSLTISSMEAEDAASYFCHQWSSYPRTFGAGTKLELK
